Reference: patent publication US20040005550A1 (Scripps Research, published 2004)

B1: Recombinant penton base from adenovirus type 2 (ligand)
chain: MQRAAMYEEGPPPSYESVVSAAPVAAALGSPFDAPLDPPFVPPRYLRPTGGRNSIRYSELAPLFDTTRVYLVDNKSTDVASLNYQNDHSNFLTTVIQNNDYSPGEASTQTINLDDRSHWGGDLKTILHTNMPNVNEFMFTNKFKARVMVSRSLTKDKQVELKYEWVEFTLPEGNYSETMTIDLMNNAIVEHYLKVGRQNGVLESDIGVKFDTRNFRLGFDPVTGLVMPGVYTNEAFHPDIILLPGCGVDFTHSRLSNLLGIRKRQPFQEGFRITYDDLEGGNIPALLDVDAYQASLKDDTEQGGDGAGGGNNSGSGAEENSNAAAAAMQPVEDMNDHAIRGDTFATRAEEKRAEAEAAAEAAAPAAQPEVEKPQKKPVIKPLTEDSKKRSYNLISNDSTFTQYRSWYLAYNYGDPQTGIRSWTLLCTPDVTCGSEQVYWSLPDMMQDPVTFRSTSQISNFPVVGAELLPVHSKSFYNDQAVYSQLIRQFTSLTHVFNRFPENQILARPPAPTITTVSENVPALTDHGTLPLRNSIGGVQRVTITDARRRTCPYVYKALGIVSPRVLSSRTF
notes: also called Alexa-penton base; aPB
B2: Purified human fibrinogen (ligand)
chain 1: ADSGEGDFLAEGGGVRGPRVVERHQSACKDSDWPFCSDEDWNYKCPSGCRMKGLIDEVNQDFTNRINKLKNSLFEYQKNNKDSHSLTTNIMEILRGDFSSANNRDNTYNRVSEDLRSRIEVLKRKVIEKVQHIQLLQKNVRAQLVDMKRLEVDIDIKIRSCRGSCSRALAREVDLKDYEDQQKQLEQVIAKDLLPSRDRQHLPLIKMKPVPDLVPGNFKSQLQKVPPEWKALTDMPQMRMELERPGGNEITRGGSTSYGTGSETESPRNPSSAGSWNSGSSGPGSTGNRNPGSSGTGGTATWKPGSSGPGSTGSWNSGSSGTGSTGNQNPGSPRPGSTGTWNPGSSERGSAGHWTSESSVSGSTGQWHSESGSFRPDSPGSGNARPNNPDWGTFEEVSGNVSPGTRREYHTEKLVTSKGDKELRTGKEKVTSGSTTTTRRSCSKTVTKTVIGPDGHKEVTKEVVTSEDGSDCPEAMDLGTLSGIGTLDGFRHRHPDEAAFFDTASTGKTFPGFFSPMLGEFVSETESRGSESGIFTNTKESSSHHPGIAEFPSRGKSSSYSKQFTSSTSYNRGDSTFESKSYKMADEAGSEADHEGTHSTKRGHAKSRPV
chain 2: QGVNDNEEGFFSARGHRPLDKKREEAPSLRPAPPPISGGGYRARPAKAAATQKKVERKAPDAGGCLHADPDLGVLCPTGCQLQEALLQQERPIRNSVDELNNNVEAVSQTSSSSFQYMYLLKDLWQKRQKQVKDNENVVNEYSSELEKHQLYIDETVNSNIPTNLRVLRSILENLRSKIQKLESDVSAQMEYCRTPCTVSCNIPVVSGKECEEIIRKGGETSEMYLIQPDSSVKPYRVYCDMNTENGGWTVIQNRQDGSVDFGRKWDPYKQGFGNVATNTDGKNYCGLPGEYWLGNDKISQLTRMGPTELLIEMEDWKGDKVKAHYGGFTVQNEANKYQISVNKYRGTAGNALMDGASQLMGENRTMTIHNGMFFSTYDRDNDGWLTSDPRKQCSKEDGGGWWYNRCHAANPNGRYYWGGQYTWDMAKHGTDDGVVWMNWKGSWYSMRKMSMKIRPFFPQQ
chain 3: YVATRDNCCILDERFGSYCPTTCGIADFLSTYQTKVDKDLQSLEDILHQVENKTSEVKQLIKAIQLTYNPDESSKPNMIDAATLKSRKMLEEIMKYEASILTHDSSIRYLQEIYNSNNQKIVNLKEKVAQLEAQCQEPCKDTVQIHDITGKDCQDIANKGAKQSGLYFIKPLKANQQFLVYCEIDGSGNGWTVFQKRLDGSVDFKKNWIQYKEGFGHLSPTGTTEFWLGNEKIHLISTQSAIPYALRVELEDWNGRTSTADYAMFKVGPEADKYRLTYAYFAGGDAGDAFDGFDFGDDPSDKFFTSHNGMQFSTWDNDNDKFEGNCAEQDGSGWWMNKCHAGHLNGVYYQGGTYSKASTPNGYDNGIIWATWKTRWYSMKKTTMKIIPFNRLTIGEGQQHHLGGAKQAGDV
notes: also called FITC-fibrinogen

Experiments:
[1] = biological target: T1, human αvβ3 integrin on cells (human, UniProt P06756 31-1048; P05106 27-788); experiment: cell-based or functional assay
T1 sequence (P06756 31-1048, chain 1 of 2): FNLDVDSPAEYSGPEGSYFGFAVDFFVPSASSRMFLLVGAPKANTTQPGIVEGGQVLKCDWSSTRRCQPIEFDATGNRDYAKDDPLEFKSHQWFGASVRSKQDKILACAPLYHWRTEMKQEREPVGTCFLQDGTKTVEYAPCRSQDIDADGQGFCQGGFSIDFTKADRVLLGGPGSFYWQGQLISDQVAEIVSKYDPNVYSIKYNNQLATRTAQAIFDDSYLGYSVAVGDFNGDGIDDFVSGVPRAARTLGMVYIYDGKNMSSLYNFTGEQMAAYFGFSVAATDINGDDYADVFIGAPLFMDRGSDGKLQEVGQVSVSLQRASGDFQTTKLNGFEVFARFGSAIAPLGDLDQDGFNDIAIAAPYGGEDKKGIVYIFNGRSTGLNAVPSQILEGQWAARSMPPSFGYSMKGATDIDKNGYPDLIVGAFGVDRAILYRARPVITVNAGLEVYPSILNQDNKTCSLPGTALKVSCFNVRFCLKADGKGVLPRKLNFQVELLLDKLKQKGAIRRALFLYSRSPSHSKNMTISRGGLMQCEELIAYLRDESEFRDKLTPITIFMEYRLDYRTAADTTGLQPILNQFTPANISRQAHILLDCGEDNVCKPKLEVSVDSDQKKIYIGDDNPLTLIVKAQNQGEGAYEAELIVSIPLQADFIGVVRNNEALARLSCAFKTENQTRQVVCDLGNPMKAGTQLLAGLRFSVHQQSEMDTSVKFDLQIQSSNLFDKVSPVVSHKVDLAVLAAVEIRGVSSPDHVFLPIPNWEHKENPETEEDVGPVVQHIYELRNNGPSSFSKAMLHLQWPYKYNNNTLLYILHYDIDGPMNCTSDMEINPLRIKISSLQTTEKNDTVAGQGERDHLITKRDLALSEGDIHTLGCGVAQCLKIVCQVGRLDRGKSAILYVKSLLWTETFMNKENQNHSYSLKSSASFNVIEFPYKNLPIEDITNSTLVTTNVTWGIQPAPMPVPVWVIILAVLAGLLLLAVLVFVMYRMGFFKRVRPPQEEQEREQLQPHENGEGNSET
T1 sequence (P05106 27-788, chain 2 of 2): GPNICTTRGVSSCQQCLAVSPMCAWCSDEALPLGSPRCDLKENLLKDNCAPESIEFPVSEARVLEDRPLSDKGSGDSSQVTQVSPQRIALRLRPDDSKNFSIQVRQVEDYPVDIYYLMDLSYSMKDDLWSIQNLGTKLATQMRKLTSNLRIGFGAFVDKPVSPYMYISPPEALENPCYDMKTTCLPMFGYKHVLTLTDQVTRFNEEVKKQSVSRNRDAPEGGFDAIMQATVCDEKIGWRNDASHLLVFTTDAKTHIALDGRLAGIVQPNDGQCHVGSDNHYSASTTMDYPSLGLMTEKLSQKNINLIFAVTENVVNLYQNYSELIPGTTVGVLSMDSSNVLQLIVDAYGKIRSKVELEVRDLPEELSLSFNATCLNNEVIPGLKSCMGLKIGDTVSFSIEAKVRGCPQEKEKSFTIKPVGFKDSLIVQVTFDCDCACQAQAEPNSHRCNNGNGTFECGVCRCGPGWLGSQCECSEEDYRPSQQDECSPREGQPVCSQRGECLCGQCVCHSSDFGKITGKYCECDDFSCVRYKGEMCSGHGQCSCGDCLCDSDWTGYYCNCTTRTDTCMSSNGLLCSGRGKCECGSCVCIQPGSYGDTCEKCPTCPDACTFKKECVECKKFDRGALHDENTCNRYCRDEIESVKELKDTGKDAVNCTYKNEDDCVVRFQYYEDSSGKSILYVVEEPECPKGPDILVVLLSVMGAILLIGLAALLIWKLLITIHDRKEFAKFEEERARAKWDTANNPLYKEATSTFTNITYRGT

[2] = biological target: T2, αIIbβ3 on human platelets (human, UniProt P08514 32-1039; P05106 27-788); experiment: flow cytometry on human platelets
T2 construct: whole, on cells; also called platelet αIIbβ3
T2 sequence (P08514 32-1039, chain 1 of 2): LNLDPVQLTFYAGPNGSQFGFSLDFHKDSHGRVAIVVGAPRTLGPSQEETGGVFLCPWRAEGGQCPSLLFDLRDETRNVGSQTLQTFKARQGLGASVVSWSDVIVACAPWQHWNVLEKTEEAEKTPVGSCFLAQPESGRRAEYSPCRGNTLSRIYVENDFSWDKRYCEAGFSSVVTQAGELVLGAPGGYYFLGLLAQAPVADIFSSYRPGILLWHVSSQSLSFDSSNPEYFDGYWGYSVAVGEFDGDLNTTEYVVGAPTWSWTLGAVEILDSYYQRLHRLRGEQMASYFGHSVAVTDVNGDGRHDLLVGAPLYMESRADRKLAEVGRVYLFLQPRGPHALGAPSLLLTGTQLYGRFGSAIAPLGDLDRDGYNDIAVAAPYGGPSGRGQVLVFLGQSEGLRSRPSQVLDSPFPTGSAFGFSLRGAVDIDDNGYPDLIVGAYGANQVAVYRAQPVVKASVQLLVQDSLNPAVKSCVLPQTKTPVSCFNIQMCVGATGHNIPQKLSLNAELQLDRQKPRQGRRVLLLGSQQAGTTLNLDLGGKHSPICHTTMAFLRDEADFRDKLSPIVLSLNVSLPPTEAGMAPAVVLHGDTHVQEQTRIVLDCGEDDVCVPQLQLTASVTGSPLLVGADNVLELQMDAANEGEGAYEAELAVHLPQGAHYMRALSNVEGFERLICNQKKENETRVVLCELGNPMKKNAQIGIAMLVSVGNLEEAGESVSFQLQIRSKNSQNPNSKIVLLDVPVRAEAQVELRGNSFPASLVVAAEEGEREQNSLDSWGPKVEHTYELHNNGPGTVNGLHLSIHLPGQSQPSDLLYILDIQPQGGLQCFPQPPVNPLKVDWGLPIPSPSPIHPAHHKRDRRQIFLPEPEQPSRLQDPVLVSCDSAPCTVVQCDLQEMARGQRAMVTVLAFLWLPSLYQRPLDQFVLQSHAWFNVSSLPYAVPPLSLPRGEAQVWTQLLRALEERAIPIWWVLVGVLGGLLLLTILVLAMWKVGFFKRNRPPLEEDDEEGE
T2 sequence (P05106 27-788, chain 2 of 2): as the sequence (P05106 27-788, chain 2 of 2) above

[3] = biological target: T1, human αvβ3 integrin on cells; experiment: flow cytometry binding isotherm, αvβ3-CHO cells, no treatment
Experimental: (§1) Typically, cells were cultured overnight in low serum medium (e.g., 0.5% fetal bovine serum), resuspended in incubation buffer at 1-1.5×10⁷ cells/ml, and 4-6×10⁵ cells were incubated with one of these ligands for 30 min at room temperature in a final volume of 50 μl. […] After 30 min at room temperature, cells were washed and incubated with phycoerythrin-streptavidin (1:25 final dilution; Molecular Probes) for 20 min on ice. […] Cells were washed and resuspended in 0.5 ml incubation buffer containing 2 μg/ml propidium iodide (Sigma, St. Louis, Mo.). Ligand binding (FL1 channel) was analyzed immediately on the gated subset of live cells (propidium iodide-negative, FL3) that was strongly positive for αᵥβ₃ expression (FL2). Binding isotherms were subjected to non-linear, least squares regression analysis using an equation for one-site binding (Prism 2.0 software; GraphPad Software, San Diego, Calif.). Two-tailed P values for paired samples were obtained by Student's t test.

[4] = biological target: T1, human αvβ3 integrin on cells; experiment: flow cytometry, JY cells, 100 nM phorbol myristate acetate for 15 min
[5] = biological target: T1, human αvβ3 integrin on cells; experiment: flow cytometry binding isotherm, αvβ3-CHO cells, activating antibody AP5
Experimental: as §1

[6] = biological target: T1, human αvβ3 integrin on cells; experiment: flow cytometry, equilibrium binding, unstimulated αvβ3-CHO cells; reference aPB

Row | Binder | shift of the adhesion dose-response curve with AP5 against no additive [1] [fold] | binding result [2] | Kd [3] [nM] | fold increase in specific binding with phorbol myristate acetate against no agonist [4] [fold] | Kd [5] [nM] | fold lower affinity/avidity than for aPB [6] [fold]
1 | B1 | 7 | no binding | 550 | 2.7 | 160 | –
2 | B2 | – | – | 9200 | – | 566 | ~15
